Data: publication PMC13120683
Several values for one entry are separate records, joined by “and”; a condition that tells them apart may be missing. Identical values can stand only once.

Assays:
[1] = biological target: MyoF-Motor (MyoF lacking its WD40 tail domain, a.a. 1–1265, C-terminal biotin–FLAG tag), heavy chain (T. gondii); assay: negative-stain electron microscopy; negatively stained images of purified myosin constructs with co-purified light chain
[2] = biological target: MyoF-Tail (coiled-coil region, linker and WD40 domain, a.a. 987–1953, C-terminal biotin–FLAG tag) (T. gondii); assay: SEC; analytical; 0.25 mg/ml MyoF-Tail on Superdex 10/300 GL; 10 mM imidazole pH 7.4, 300 mM NaCl, 1 mM EGTA, 1 mM DTT; standards ferritin 440 kDa and thyroglobulin 660 kDa
[3] = biological target: MyoF-Motor (MyoF lacking its WD40 tail domain, a.a. 1–1265, C-terminal biotin–FLAG tag), heavy chain (T. gondii)
[4] = biological target: MyoF-Motor (MyoF lacking its WD40 tail domain, a.a. 1–1265, C-terminal biotin–FLAG tag), heavy chain (T. gondii); assay: thermal denaturation (calmodulin-binding) assay
[5] = biological target: Toxoplasma gondii actin (TgAct1) filaments (T. gondii) (UniProt P53476)
[6] = biological target: Toxoplasma gondii actin (TgAct1) filaments (T. gondii) (UniProt P53476); assay: single-molecule motility assay (fluorescence microscopy); full-length MyoF mixed 1:5 with Alexa Fluor 647–streptavidin; TgAct1 filaments (jasplakinolide-stabilised or unstabilised) or skeletal actin-fascin bundles (phalloidin or jasplakinolide) held on the flow cell; 2 mM MgATP; 37°C
[7] = biological target: full-length MyoF with a C-terminal biotin–FLAG tag, heavy chain (T. gondii); assay: negative-stain electron microscopy; negatively stained images of purified myosin constructs with co-purified light chain

## MyoF-Motor (MyoF lacking its WD40 tail domain, a.a. 1–1265, C-terminal biotin–FLAG tag), heavy chain (domain or fragment)
[1]
  stoichiometry N: 2

## MyoF-Tail (coiled-coil region, linker and WD40 domain, a.a. 987–1953, C-terminal biotin–FLAG tag) (domain or fragment)
[2]
  stoichiometry N: > 6

## TgCam (calmodulin), untagged, co-expressed in Sf9 cells (natural protein)
[3]
  in vitro gliding filament motility speed of MyoF-Motor bound to only TgCam (skeletal actin): 1.2 µm/s
[4]
  stoichiometry N (calmodulin light chains per heavy chain): 3

## full-length MyoF co-purified with TgCam (complex)
[5]
  run length (λ) of single full-length MyoF complexes on jasplakinolide-stabilized TgAct1 filaments: 1.14 µm
  velocity of single full-length MyoF complexes on jasplakinolide-stabilized TgAct1 filaments: 1.5 µm/s
[6]
  pause time at filament ends: 1.5 s

## full-length MyoF with a C-terminal biotin–FLAG tag, heavy chain (natural protein)
[7]
  stoichiometry N: 3 heads and 6 heads
